The target in one experiment is T1, mouse SIRPA BALB/c (mouse (BALB/c), UniProt P97797 35-513).
T1 construct: FLAG-tagged (pFLAG V5-DEST), on 293α cells
T1 chain: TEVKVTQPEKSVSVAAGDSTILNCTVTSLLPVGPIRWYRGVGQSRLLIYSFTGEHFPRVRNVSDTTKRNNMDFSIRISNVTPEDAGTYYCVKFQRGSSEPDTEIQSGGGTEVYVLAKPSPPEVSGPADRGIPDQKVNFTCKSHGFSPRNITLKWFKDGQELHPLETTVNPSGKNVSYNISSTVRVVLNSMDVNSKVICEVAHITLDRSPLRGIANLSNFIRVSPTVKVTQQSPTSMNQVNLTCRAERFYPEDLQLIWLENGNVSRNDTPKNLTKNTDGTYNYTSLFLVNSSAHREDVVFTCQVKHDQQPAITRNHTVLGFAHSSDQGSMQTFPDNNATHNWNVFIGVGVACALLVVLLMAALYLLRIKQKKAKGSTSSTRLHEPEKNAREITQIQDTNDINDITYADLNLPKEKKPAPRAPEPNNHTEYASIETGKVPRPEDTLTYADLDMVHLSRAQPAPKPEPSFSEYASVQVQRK
As to the kind of experiment: cell-based ELISA, transfected 293α cells. As for the experimental part:
(§1) After the culture supernatant of 293α cells into which the pFLAG V5-DEST-monkey SIRPA or pFLAG V5-DEST-mouse SIRPA expression vector was introduced and the pFLAG V5-DEST-introduced 293α cells prepared in Example 1)-5-2 was removed, binding to monkey or mouse SIRPA was evaluated in the same manner as for the binding activity of human SIRPA.

Another experiment addresses T2, mouse SIRPA_NOD (mouse (NOD), UniProt P97797 32-513).
T2 construct: FLAG-tagged (pFLAG V5-DEST), on 293α cells; also called NOD SCID
T2 chain: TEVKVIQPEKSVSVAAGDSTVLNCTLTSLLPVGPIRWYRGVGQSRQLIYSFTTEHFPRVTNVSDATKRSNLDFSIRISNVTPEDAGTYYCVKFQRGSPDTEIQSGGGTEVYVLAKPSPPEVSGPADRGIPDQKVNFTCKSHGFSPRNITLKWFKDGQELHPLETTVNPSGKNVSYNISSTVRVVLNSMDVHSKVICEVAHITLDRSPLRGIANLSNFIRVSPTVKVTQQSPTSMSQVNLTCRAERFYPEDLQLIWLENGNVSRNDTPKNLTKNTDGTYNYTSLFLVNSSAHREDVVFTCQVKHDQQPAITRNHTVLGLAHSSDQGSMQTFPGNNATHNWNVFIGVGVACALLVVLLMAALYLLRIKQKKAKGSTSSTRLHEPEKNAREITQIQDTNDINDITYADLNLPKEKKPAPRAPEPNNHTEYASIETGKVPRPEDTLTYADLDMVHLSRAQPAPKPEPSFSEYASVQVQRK
The experiment is described as follows: cell-based ELISA, transfected 293α cells. As for the experimental part:
as §1
For orientation: ELISA stands for enzyme-linked immunosorbent assay.

Another experiment deals with T3, mouse SIRPA_C57BL/6 (mouse (C57BL/6), UniProt P97797 32-513).
T3 construct: FLAG-tagged (pFLAG V5-DEST), on 293α cells
T3 sequence: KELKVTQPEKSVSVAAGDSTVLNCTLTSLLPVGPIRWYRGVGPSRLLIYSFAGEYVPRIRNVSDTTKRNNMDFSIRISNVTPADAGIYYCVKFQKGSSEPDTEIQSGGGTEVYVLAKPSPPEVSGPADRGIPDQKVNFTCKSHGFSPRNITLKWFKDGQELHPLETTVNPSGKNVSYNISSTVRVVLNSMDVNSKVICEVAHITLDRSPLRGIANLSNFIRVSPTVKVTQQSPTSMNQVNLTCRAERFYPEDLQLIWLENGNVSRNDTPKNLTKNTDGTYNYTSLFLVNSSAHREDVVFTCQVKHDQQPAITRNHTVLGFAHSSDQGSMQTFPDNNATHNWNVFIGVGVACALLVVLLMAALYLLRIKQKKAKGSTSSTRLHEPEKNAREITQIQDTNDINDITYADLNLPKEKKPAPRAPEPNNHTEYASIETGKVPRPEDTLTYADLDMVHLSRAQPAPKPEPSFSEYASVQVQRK
As to the kind of experiment: cell-based ELISA, transfected 293α cells. As for the experimental part:
as §1

A further experiment has as its target T4, mouse SIRPA_129 (mouse (129), UniProt P97797 32-513).
T4 construct: FLAG-tagged (pFLAG V5-DEST), on 293α cells; also called 129sv
T4 chain: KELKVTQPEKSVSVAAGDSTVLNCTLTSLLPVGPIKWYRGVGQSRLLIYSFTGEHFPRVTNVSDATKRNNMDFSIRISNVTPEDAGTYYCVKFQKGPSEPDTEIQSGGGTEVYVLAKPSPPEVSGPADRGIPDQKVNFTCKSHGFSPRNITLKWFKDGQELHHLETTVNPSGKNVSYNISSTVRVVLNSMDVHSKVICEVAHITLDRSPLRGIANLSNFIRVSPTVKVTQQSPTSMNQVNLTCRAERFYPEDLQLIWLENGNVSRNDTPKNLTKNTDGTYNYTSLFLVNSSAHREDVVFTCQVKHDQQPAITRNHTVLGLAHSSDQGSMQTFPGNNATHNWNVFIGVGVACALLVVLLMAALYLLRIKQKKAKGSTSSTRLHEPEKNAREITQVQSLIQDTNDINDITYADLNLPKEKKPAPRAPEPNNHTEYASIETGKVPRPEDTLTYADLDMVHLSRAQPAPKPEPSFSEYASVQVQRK
The experiment is described as follows: cell-based ELISA, transfected 293α cells. As for the experimental part:
as §1

For another experiment, the target named is T5, human SIRPA_V8 (human, UniProt P78324 31-504).
T5 construct: FLAG-tagged (pFLAG V5-DEST), on 293α cells; also called human SIRPA Variant 8
As to the kind of experiment: cell-based ELISA, transfected 293α cells, 10,000 ng/mL, normalized to FLAG. As for the experimental part: (§2) After the culture supernatant of 293α cells into which the vector expressing 10 different variant proteins prepared in Example 2)-1-1 was introduced was removed, 50 μL per well of a purified rat anti-human SIRPA antibody diluted with 5% FBS-containing PBS to a final concentration of 10,000 ng/ml was added to each of pFLAG V5-DEST-SIRPA_V1-V10 and pFLAG V5-DEST-introduced 293α cells, and the mixture was allowed to stand at 4° C. for one hour. Further, 50 μL per well of an anti-FLAG M2 antibody (SIGMA) diluted with 5% FBS-containing PBS to a final concentration of 10,000 ng/mL was added to a well for detecting expression of each SIRPA variant, and the mixture was allowed to stand at 4° C. for one hour. Thereafter, binding to 10 different human SIRPA variants was evaluated in the same manner as in the evaluation of the binding activity of the human SIRPA described in 1)-6-2. Binding of the rat anti-human SIRPA antibodies to each variant was standardized by expression of the FLAG tag.

For another experiment, the target named is T6, human SIRPA_V4 (human, UniProt P78324 31-504).
T6 construct: FLAG-tagged (pFLAG V5-DEST), on 293α cells; also called human SIRPA Variant 4
T6 chain: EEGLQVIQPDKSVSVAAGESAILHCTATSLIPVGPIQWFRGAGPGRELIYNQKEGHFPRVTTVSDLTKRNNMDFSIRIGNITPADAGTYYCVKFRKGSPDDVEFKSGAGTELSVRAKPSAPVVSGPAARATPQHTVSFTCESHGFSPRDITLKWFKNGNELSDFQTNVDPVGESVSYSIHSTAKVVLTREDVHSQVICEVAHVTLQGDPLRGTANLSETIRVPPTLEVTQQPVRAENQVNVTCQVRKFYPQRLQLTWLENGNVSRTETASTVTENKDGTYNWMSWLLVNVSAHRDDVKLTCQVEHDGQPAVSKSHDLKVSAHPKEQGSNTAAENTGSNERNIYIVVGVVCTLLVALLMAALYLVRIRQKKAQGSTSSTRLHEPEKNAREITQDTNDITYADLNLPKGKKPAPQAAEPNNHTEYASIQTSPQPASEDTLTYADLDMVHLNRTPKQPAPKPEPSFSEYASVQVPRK
Described as above. As for the experimental part: as §2

B1: rat anti-human SIRPA monoclonal antibody F44 (antibody, V domains shown)
VH: EVQLVESGGGLVQPGRSLKLSCAASGFTFSNYYMAWVRQAPTKGLEWVTYITTGGGSTYFRDSVKGRFTISRDNAESTLYLQMDSLRSEDTATYYCTAANYGGSYFDYWGQGVMVTVSS
VL: DVQMTQSPSNLAASPGESVSINCKASKSISKYLAWYQQKPGKANKLLIYSGSTLQSGTPSRFSGSGSGTDFTLTIRNLEPEDFGLYYCQQHNEYPPTFGAGTKLELK
notes: Rat IgG2a/kappa purified from hybridoma
In the case of B1, the binding result was “no binding” in the experiment with mouse SIRPA BALB/c; “no binding” with mouse SIRPA_NOD; “no binding” in the experiment with mouse SIRPA_C57BL/6; “no binding” with mouse SIRPA_129; “binds” with human SIRPA_V8; “binds” in the experiment with human SIRPA_V4.

B2: rat anti-human SIRPA monoclonal antibody F63 (antibody, V domains shown)
VH: QVQLKESGPGLVQPSETLSLTCTVSGFSLASYSLSWVRQPSGKGPEWMGRMYYDGDTAYNSALKSRLSISRDTSKNQVFLKMNSLQTDDTGTYYCTRDRSMFGTDYPHWYFDFWGPGTMVTVSS
VL: QFTLTQPKSVSGALRSTITIPCERSSGDIGDSYVSWYQRHLGRPPINVIYADDQRPSEVSDRFSGSIDSSSNSASLTITNLQMDDEADYFCQSYDSKIDIFGGGTKLTVL
notes: Rat IgG2a/lambda purified from hybridoma
On to B2, for which the binding result was “no binding” with mouse SIRPA BALB/c; “no binding” with mouse SIRPA_NOD; “no binding” in the experiment with mouse SIRPA_C57BL/6; “no binding” in the experiment with mouse SIRPA_129; “binds” with human SIRPA_V8; “binds” with human SIRPA_V4.

The values above are taken from patent US20260098102A1 (NATIONAL UNIVERSITY CORPORATION KOBE UNIVERSITY, published 2026).
